{"source": "paper PMC9054839", "about": "“Mechanism of integrin activation by talin and its cooperation with kindlin” (Nature Communications, 2022)", "binders": {"B1": {"name": "GST-integrin beta3 cytoplasmic tail (domain or fragment, UniProt P05106 742-788, looked up)", "chain": "{GST}-KLLITIHDRKEFAKFEEERARAKWDTANNPLYKEATSTFTNITYRGT", "notes": "integrin β3 cytoplasmic tail; also called integrin-β3 CT; GST-integrin beta3CT; source: E. coli BL21 (DE3), purified"}, "B2": {"name": "GST-paxillin 1–160 (domain or fragment)", "chain": "not shown", "notes": "paxillin-γ, human, N-terminal 1-160 containing LD1 and LD2, in pGST-1; also called paxi1–160; source: E. coli BL21 (DE3), purified (GST column, gel filtration)"}, "B3": {"name": "talin-R2 (domain or fragment, mouse, UniProt P26039 655-782, looked up)", "chain": "IGESDTDPHFQDVLMQLAKAVASAAAALVLKAKSVAQRTEDSGLQTQVIAAATQCALSTSQLVACTKVVAPTISSPVCQEQLVEAGRLVAKAVEGCVSASQAATEDGQLLRGVGAAATAVTQALNELL", "notes": "talin (talin-1), mouse, rod subdomain R2; source: E. coli BL21 (DE3), purified"}, "B4": {"name": "talin-R8 (domain or fragment, mouse, UniProt P26039 1461-1580, looked up)", "chain": "LVEPTQFARANQAIQMACQSLGEPGCTQAQVLSAATIVAKHTSALCNSCRLASARTANPTAKRQFVQSAKEVANSTANLVKTIKALDGDFTEENRAQCRAATAPLLEAVDNLSAFASNPE", "notes": "talin (talin-1), mouse, rod subdomain R8; source: E. coli BL21 (DE3), purified"}, "B5": {"name": "talin-F3 (domain or fragment)", "chain": "GVSFFLVKEKMKGKNKLVPRLLGITKECVMRVDEKTKEVIQEWSLTNIKRWAASPKSFTLDFGDYQDGYYSVQTTEGEQIAQLIAGYIDIILKKKKS"}, "B6": {"name": "full-length paxillin (natural protein)", "chain": "not shown", "notes": "also called paxiFL; paxillin-γ; source: E. coli BL21 (DE3), purified (GST column, gel filtration)"}}, "conditions_in_all_cases": "both partners purified", "key": {"[1]": {"target": "T1, constitutively activated full-length talin mutant tlnM3 (M319A, T1767L, E1770K) (mouse, UniProt P26039 1-2541, M319A | T1767L | E1770K)", "T1 construct": "talin (talin-1), mouse, full length 1-2541, in pET28T; also called active talin; talinFL TM; source: E. coli BL21 (DE3), purified (nickel column, Superose-6 gel filtration)", "T1 sequence (P26039 whole entry M319A/T1767L/E1770K)": "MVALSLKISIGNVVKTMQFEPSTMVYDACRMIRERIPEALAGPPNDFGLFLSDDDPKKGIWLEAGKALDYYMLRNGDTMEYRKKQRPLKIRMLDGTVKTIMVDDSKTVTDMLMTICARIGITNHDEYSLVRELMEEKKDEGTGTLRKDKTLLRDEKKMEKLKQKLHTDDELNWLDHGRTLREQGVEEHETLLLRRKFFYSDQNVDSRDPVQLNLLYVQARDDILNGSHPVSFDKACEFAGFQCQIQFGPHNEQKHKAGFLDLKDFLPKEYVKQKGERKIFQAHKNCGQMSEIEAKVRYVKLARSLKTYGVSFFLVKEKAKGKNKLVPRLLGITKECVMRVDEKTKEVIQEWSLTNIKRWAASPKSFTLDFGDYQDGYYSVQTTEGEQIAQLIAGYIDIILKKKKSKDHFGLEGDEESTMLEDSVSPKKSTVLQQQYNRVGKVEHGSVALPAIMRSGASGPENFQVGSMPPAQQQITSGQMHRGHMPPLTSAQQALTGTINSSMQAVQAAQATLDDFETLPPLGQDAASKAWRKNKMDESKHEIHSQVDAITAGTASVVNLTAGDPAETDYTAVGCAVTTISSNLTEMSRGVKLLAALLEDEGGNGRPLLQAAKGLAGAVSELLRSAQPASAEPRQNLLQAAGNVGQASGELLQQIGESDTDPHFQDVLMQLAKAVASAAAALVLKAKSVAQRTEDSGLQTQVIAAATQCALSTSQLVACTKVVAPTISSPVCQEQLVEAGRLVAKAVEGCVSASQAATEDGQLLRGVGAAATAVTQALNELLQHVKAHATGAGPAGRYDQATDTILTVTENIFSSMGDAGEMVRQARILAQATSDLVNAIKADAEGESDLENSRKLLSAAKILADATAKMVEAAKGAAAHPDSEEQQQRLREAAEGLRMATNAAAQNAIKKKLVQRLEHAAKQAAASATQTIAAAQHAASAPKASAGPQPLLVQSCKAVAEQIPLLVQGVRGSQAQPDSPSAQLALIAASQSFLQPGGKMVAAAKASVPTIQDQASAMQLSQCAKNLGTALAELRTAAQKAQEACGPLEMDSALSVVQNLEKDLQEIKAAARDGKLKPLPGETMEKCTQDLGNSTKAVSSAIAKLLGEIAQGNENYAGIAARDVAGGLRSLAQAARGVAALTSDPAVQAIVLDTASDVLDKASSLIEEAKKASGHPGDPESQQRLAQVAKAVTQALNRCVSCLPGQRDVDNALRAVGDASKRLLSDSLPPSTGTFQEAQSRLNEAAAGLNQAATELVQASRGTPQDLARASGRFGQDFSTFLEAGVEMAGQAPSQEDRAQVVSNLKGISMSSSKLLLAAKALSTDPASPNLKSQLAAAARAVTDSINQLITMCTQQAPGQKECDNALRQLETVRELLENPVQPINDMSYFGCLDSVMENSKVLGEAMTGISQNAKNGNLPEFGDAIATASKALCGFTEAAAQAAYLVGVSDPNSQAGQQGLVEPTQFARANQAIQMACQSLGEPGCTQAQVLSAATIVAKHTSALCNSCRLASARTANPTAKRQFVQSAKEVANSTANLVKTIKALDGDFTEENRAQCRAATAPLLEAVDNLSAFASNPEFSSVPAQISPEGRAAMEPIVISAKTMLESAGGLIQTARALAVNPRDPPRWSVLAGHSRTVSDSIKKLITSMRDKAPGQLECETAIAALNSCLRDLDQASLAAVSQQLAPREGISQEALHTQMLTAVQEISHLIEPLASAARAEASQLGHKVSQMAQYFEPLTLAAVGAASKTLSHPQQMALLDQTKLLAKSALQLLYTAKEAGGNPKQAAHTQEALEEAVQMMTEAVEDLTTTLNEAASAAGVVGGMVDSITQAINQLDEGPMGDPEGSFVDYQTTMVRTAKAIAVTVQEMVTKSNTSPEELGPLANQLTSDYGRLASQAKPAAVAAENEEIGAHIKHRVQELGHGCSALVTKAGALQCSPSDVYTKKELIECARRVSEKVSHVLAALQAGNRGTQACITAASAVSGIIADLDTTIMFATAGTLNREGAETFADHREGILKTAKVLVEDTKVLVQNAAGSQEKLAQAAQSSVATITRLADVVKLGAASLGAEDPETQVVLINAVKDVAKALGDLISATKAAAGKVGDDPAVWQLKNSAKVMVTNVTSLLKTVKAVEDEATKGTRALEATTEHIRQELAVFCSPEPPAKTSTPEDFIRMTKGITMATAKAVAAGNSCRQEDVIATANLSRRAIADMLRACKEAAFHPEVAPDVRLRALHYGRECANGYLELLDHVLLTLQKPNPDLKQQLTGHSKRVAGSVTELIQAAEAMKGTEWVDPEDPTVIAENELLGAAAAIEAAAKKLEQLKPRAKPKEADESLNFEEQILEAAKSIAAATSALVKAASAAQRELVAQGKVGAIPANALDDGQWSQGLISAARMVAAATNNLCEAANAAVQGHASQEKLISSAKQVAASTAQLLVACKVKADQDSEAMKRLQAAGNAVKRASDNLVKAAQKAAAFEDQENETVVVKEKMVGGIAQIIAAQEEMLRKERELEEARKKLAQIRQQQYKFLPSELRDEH", "experiment": "SPR; GST-integrin beta3CT amine-coupled to CM5, talinH or tlnM3 (0–125 nM) flowed over; 50 mM sodium phosphate pH 6.8, 150 mM NaCl, 0.05% Tween 20, 0.03% BSA, 25 °C"}, "[2]": {"target": "T1, constitutively activated full-length …", "experiment": "pull-down; GST-paxillin (full length or fragments) on glutathione-Sepharose 4B beads, talin or talin fragments as prey; 25 mM Tris-HCl pH 7.5, 150 mM NaCl, 0.5 mM TCEP, 0.01 or 0.1% NP40, 4 °C; western blot or Coomassie"}, "paxillin 1–160": {"target": "T2, paxillin 1–160 (human, UniProt P49023-3 1-160)", "T2 construct": "paxillin-γ, human, N-terminal 1-160 containing LD1 and LD2, in pGST-1; also called paxillin-γ 1–160; paxillin N-terminal 1–160; source: E. coli BL21 (DE3), purified (GST column, gel filtration)", "T2 sequence (P49023 1-160)": "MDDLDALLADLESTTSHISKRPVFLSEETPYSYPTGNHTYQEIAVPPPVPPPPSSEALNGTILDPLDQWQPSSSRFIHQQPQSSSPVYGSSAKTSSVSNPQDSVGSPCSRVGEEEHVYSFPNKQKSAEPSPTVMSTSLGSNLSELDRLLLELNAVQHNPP", "experiment": "SPR; paxillin 1–160 amine-coupled to CM5, talin subdomains (0–12 μM) flowed over; 50 mM sodium phosphate pH 6.8, 150 mM NaCl, 25 °C; talin-R1–R4 fitted by a two-state model"}, "[3]": {"target": "T1, constitutively activated full-length …", "experiment": "SPR; tlnM3 amine-coupled to CM5, paxiFL (0–500 nM) flowed over; 50 mM sodium phosphate pH 6.8, 150 mM NaCl, 25 °C; 1:1 model"}}, "note": "No end group written: not given here."}
{"binder": "B1", "values": [{"measurement": "Kd", "setting": "[1]", "value": "~0.0145", "unit": "µM"}]}
{"binder": "B2", "values": [{"measurement": "binding result", "setting": "[2]", "value": "binds"}]}
{"binder": "B3", "values": [{"measurement": "Kd", "setting": "paxillin 1–160", "value": "~2.21", "unit": "µM"}]}
{"binder": "B4", "values": [{"measurement": "Kd", "setting": "paxillin 1–160", "value": "~5.37", "unit": "µM"}]}
{"binder": "B5", "values": [{"measurement": "Kd", "setting": "paxillin 1–160", "value": "~3.51", "unit": "µM"}]}
{"binder": "B6", "values": [{"measurement": "Kd", "setting": "[3]", "value": "~0.0331", "unit": "µM"}, {"measurement": "stoichiometry N", "setting": "[3]", "value": 1}]}
